This note sets out measurements from patent US20260167724A1.

Where “and” joins values, the source holds several entries; their conditions need not be identical. Equal entries are not always repeated.

In the assay the target is CD3 on the Jurkat cell. In words: cell-based or functional assay.

B1: Axl-WT×CD3-WT (bispecific antibody, part only; not given: constant regions and linkers, not shown: a dimerising Fc or GST)
heavy: EVQLVQSGAEVKKPGATVKISCKVSGYSFTGHTMNWIRQPPGKGLEWIGLIKPSNGGTSYNQKFKGRVTISADKSISTAYLQWSSLKASDTAMYYCAHGHYESYFAMDYWGQGTSVTVSS
light (part 1 of 2), part: DIQMTQSPSSLSASVGDRVTITCKASQDVSSAVAWYQQKPGQAPRLLIYWASTRHTGVPSRFSGSGSGTEFTLTISSLQPDDFATYYCQEHFSTPLTFGQGTKVEIK
light (part 2 of 2), part: QAVVTQEPSLTVSPGGTVTLTCRSSTGAVTTSNYANWVQQKPGQAPRGLIGGTNKRAPWTPARFSGSLLGGKAALTITGAQAEDEADYYCALWYSNLWVFGGGTKLTVLGEVQLVESGGGLVQPGGSLRLSCAASGFTFNTYAMNWVRQAPGKGLEWVARIRSKYNNYATYYADSVKDRFTISRDDSKNSLYLQMNSLKTEDTAVYYCVRHGNFGNSYVSWFAYWGQGTLVTVSS
Consider B1, for which the Luciferase Amount, pH 6.0, at CHO-Axl concentration (ng/mL) 0.00000 is 893 RLU and 937 RLU; the Luciferase Amount, pH 6.0, at CHO-Axl concentration (ng/mL) 0.01000 is 1230 RLU and 1330 RLU; the Luciferase Amount, pH 6.0, at CHO-Axl concentration (ng/mL) 0.1000 was 2310 RLU and 2000 RLU; the Luciferase Amount, pH 6.0, at CHO-Axl concentration (ng/mL) 1.000 was 10700 RLU and 10000 RLU. Moreover, the Luciferase Amount, pH 6.0, at CHO-Axl concentration (ng/mL) 10.00 was 44900 RLU and 46700 RLU; the Luciferase Amount, pH 6.0, at CHO-Axl concentration (ng/mL) 100.0 is 77200 RLU and 83200 RLU; the Luciferase Amount, pH 6.0, at CHO-Axl concentration (ng/mL) 1000.0 is 96200 RLU and 90400 RLU; the Luciferase Amount, pH 6.0, at CHO-Axl concentration (ng/mL) 10000.0 is 100000 RLU and 102000 RLU. Moreover, the Luciferase Amount, pH 7.4, at CHO-Axl concentration (ng/mL) 0.00000 is 2280 RLU and 2160 RLU; the Luciferase Amount, pH 7.4, at CHO-Axl concentration (ng/mL) 0.01000 is 2270 RLU and 2350 RLU; the Luciferase Amount, pH 7.4, at CHO-Axl concentration (ng/mL) 0.1000 was 3930 RLU and 3970 RLU; the Luciferase Amount, pH 7.4, at CHO-Axl concentration (ng/mL) 1.000 was 17700 RLU and 18400 RLU. The Luciferase Amount, pH 7.4, at CHO-Axl concentration (ng/mL) 10.00 is 51800 RLU and 57100 RLU; the Luciferase Amount, pH 7.4, at CHO-Axl concentration (ng/mL) 100.0 is 94100 RLU and 99200 RLU; the Luciferase Amount, pH 7.4, at CHO-Axl concentration (ng/mL) 1000.0 is 113000 RLU and 112000 RLU; the Luciferase Amount, pH 7.4, at CHO-Axl concentration (ng/mL) 10000.0 is 135000 RLU and 139000 RLU.
